This passage reports fraction ligated results from the supplement of paper PMC6755084.

The data set deals with F1*sub RNA substrate (template-directed ligation). In words: fraction ligated after 30 min (ligated reads / total reads); higher = more ligase activity; sequences stand for … in GAGACCGCAACTGAAAAGTTGT…AGTTCTGCACGTAGAAGCAAAAGGC
As to conditions: 42 °C. In a few lines:
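Ribozyme variants were transcribed with T7 from PCR-amplified oligo-pool templates and gel-purified. Ligated and unligated bands, separated on gel, were reverse transcribed with barcoded primers and sequenced on a MiSeq, with core bases filtered at quality ≥20. Fraction ligated per variant was computed as ligated reads divided by total reads.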
“TATCACTTGCGTAAGAACTTTGGATGGGTTA [3d1665]” displayed a fraction ligated of 0.604.

As for “TATCACTTGCGTAAGACACTTGGATGGGTTG [3d1687]”, the fraction ligated came to 0.796.

“TATCACTTCGTAAGACACTTTGGATGGTTGA [3d1324]” yielded a fraction ligated of 0.122.

“TATCACTTGTCTAAAACTTTGGATGGGTTGA [3d1836]”: the fraction ligated stood at 0.789.

With “TATCACTTGTCTAGACACTTTGGATGGGTTG [3d1835]”, the fraction ligated was found to be 0.76.

Sequence “TATCACTGTCGTAAGAACTTTGGATGGTTGA [3d1423]” registered a fraction ligated of 0.26.

In turn, “TATCACTTGTCGTAAGCATTTGATGGGTTGA [3d2122]” showed a fraction ligated of 0.408.

TATATTGTCGTAAGACACTTTGGTGGGTTGA [3d772] had a fraction ligated of 0.0169.

In turn, ATCACTTGCGTAAGACACTTTGGATGGGTTGA [2d8] displayed a fraction ligated of 0.836.

In turn, TATCCTGTCGTAAGACACTTTGGATGGGTTGA [2d90] yielded a fraction ligated of 0.788.

Sequence TACACTGTCGTAAGCACTTTGGATGGGTTGA [3d574] registered a fraction ligated of 0.463.

The sequence “TATCATTGTCGTAAGACACTTGGATGGGTTA [3d1274]” yielded a fraction ligated of 0.728.

Turning to ATCACTTTCTAAGACACTTTGGATGGGTTGA [3d125], the fraction ligated was determined as 0.753.

“TATCACTTGTCGTAAAACTTTGGATGGTTGA [3d2064]”: the fraction ligated came to 0.185.

“TATCATGTCGTAAGACATTTGGATGGGTTGA [3d1132]” yielded a fraction ligated of 0.801.

In turn, TTCACTGTCGTAAGACACTTTGATGGGTTGA [3d349] came in with a fraction ligated of 0.653.

TATACTTGTCGTAGACATTTGGATGGGTTGA [3d875] registered a fraction ligated of 0.759.

ATCATTGTCGTAAACACTTTGGATGGGTTGA [3d93]: the fraction ligated amounted to 0.77.

Sequence “TATCACTTGTCGTGACACTTTGGATGGTTGA [3d1990]” gave a fraction ligated of 0.0934.

Turning to TATACTTGTCGTAAGACCTTTGATGGGTTGA [3d912], the fraction ligated was 0.706.

The sequence “TATCATTGTGTAAGACATTTGGATGGGTTGA [3d1179]” showed a fraction ligated of 0.839.

With “TATCACTGCGTAAGACATTTGGATGGGTTGA [3d1335]”, the fraction ligated is 0.854.

In the case of ATCACTTTGTAAGACACTTTGGATGGGTTGA [3d124], the fraction ligated was found to be 0.787.

Turning to “TATCACTTGTCAAGACACTTTGGTGGGTTGA [3d1818]”, the fraction ligated worked out at 0.128.

In the case of “TATCACTGTCGTAAGACACTTGGATGGTTGA [3d1444]”, the fraction ligated came out at 0.382.

In the case of TATATTGCGTAAGACACTTTGGATGGGTTGA [3d760], the fraction ligated is 0.355.

In turn, “TATCACTTGTGTAAGACACTTGGTGGGTTGA [3d1788]” returned a fraction ligated of 0.0212.

As to TCACTTGTCGTAAACACTTTGGATGGGTTGA [3d12], the fraction ligated is 0.444.

The sequence “TATCCTTGTCGTAAACACTTTGGTGGGTTGA [3d1060]” registered a fraction ligated of 0.0666.

“TATCACTTGTCGTAAGACTTTGGTGGGTTGA [3d2109]”: the fraction ligated stood at 0.0656.

Take TATCCTTGCGTAAGACACTTTGGATGGGTTG [3d999]: the fraction ligated stood at 0.791.

Regarding “TATCACTTGTCGTAAACACTTTGGATGGGTTA [2d242]”, the fraction ligated was 0.77.

As to “TATCCTTGTCGTAAGACACTTTGGTGGGTTG [3d1113]”, the fraction ligated was determined as 0.0948.

“TATCACTGTGTAGACACTTTGGATGGGTTGA [3d1345]” yielded a fraction ligated of 0.886.

With “TATCACTTGTCGTAAGACACTTTGGATGGTTA [2d296]”, the fraction ligated is 0.447.

On to TATACTTGTCGTAAACACTTTGGATGGGTTGA [2d78], for which the fraction ligated was found to be 0.493.

With “TATCACTTGTCTAAGACACTTTGGTGGTTGA [3d1892]”, the fraction ligated was determined as 0.104.

ACACTTGTCGTAAGACACTTTGATGGGTTGA [3d40] displayed a fraction ligated of 0.0824.

TACACGTCGTAAGACACTTTGGATGGGTTGA [3d566] had a fraction ligated of 0.266.

The sequence “TATCACTGTGTAAGACACTTTGGTGGGTTGA [3d1353]” registered a fraction ligated of 0.0456.

Turning to “TATCACTTGTCAAGACACTTTGGATGGGTTGA [2d194]”, the fraction ligated was 0.809.

For “TATCACTTCTAAGACACTTTGGATGGGTTGA [3d1312]”, the fraction ligated was found to be 0.774.

On to TTCACTTGTCGTAAGACACTTTGGTGGGTTG [3d500], for which the fraction ligated came out at 0.0269.

Sequence “TATCACTTGGTAAGCACTTTGGATGGGTTGA [3d1588]” had a fraction ligated of 0.818.

The sequence TATCCTTTCGTAAGACACTTTGGATGGTTGA [3d981] came in with a fraction ligated of 0.0298.

“TATCACTTGTGTAAACACTTTGATGGGTTGA [3d1748]” had a fraction ligated of 0.831.

Sequence “TATCACTGCGTAAACACTTTGGATGGGTTGA [3d1331]” returned a fraction ligated of 0.838.

As for “TATCACTTGTCGTAGACACTTTGATGGTTGA [3d2045]”, the fraction ligated was determined as 0.0405.

“TATCACTTGCGTAAGACACTTGATGGGTTGA [3d1682]” had a fraction ligated of 0.747.

The sequence “TATCACTGTCGTAAGACACTTTGGATGGGTTA [2d145]” showed a fraction ligated of 0.773.

For the sequence TCACTTGTCGTAGACACTTTGGATGGGTTGA [3d11], the fraction ligated is 0.765.

In turn, ATCACTTGTCGTAAGACATTTGATGGGTTGA [3d247] came in with a fraction ligated of 0.0818.

“TATCACTTGTCGTAACATTTGGATGGGTTGA [3d1995]” yielded a fraction ligated of 0.84.

Consider “TATCATTGTGTAAGACACTTTGGAGGGTTGA [3d1183]”, for which the fraction ligated was 0.0175.

“TATCACTTGTCGTAAGACACTTGGTGGGTTGA [2d278]” showed a fraction ligated of 0.0691.

Turning to “TATCACTTGTCGTAAGACCTTTGGAGGGTTA [3d2201]”, the fraction ligated was found to be 0.0991.

The sequence ATCCTTGTCGTAAGACACTTTGATGGGTTGA [3d80] came in with a fraction ligated of 0.71.

Consider ATCACTTGTCGTAAGCACTTGGATGGGTTGA [3d224], for which the fraction ligated stood at 0.716.

The sequence “TATCACTTGTGAAGAACTTTGGATGGGTTGA [3d1721]” gave a fraction ligated of 0.851.

For “TATCACTTCGTAAGACACTTTGGAGGGTTGA [3d1323]”, the fraction ligated was determined as 0.0267.

In turn, “TATCACTTGTCGAAACACTTTGGATGGGTTG [3d1924]” came in with a fraction ligated of 0.817.

Take “TATCACTTCGTAAGACATTTGGATGGGTTGA [3d1319]”: the fraction ligated was found to be 0.84.

For TATACTTGCGTAAGACACTTGGATGGGTTGA [3d821], the fraction ligated worked out at 0.485.

“TATCACTTGTCGTAGAACTTTGGATGGGTTGA [2d224]” displayed a fraction ligated of 0.864.

In turn, “TATCACTTGTCTAAGACCTTGGATGGGTTGA [3d1864]” had a fraction ligated of 0.762.

For “TATCACTTGCGTAAGACACTTTGGATGGGTT [3d1703]”, the fraction ligated turned out to be 0.704.

On to “TATCACTTGTCGTAAACACTTTGGTGGTTGA [3d2095]”, for which the fraction ligated worked out at 0.0341.

Turning to “TATCACTTGTCGTAGCATTTGGATGGGTTGA [3d2005]”, the fraction ligated was 0.815.

Sequence TACACTGTCGTAAGACCTTTGGATGGGTTGA [3d576] had a fraction ligated of 0.752.

On to ATACTTGTCGTAAGACACTTGGATGGGTTGA [3d60], for which the fraction ligated came out at 0.473.

In the case of TTCATTGTCGTAAGACACTTTGGAGGGTTGA [3d332], the fraction ligated was determined as 0.175.

With “TATCACTTTCGTAAGAACTTTGGTGGGTTGA [3d1542]”, the fraction ligated turned out to be 0.342.

Sequence “TATCACTTGCGTAGACACTTTGATGGGTTGA [3d1633]” gave a fraction ligated of 0.803.

In the case of TACACTGTCGTAAGACACTTTGGATGGTTGA [3d582], the fraction ligated was 0.375.

Regarding “TATCACTTGTCTAGACACTTTGGAGGGTTGA [3d1832]”, the fraction ligated amounted to 0.218.

TTCACTTGTCGTAAGACCTTTGGAGGGTTGA [3d473] had a fraction ligated of 0.073.

The sequence “TATCACTGTGTAAGACACTTGGATGGGTTGA [3d1351]” came in with a fraction ligated of 0.821.

For the sequence ATCACTTGTCGTAAGACCTTTGGATGGGTTA [3d244], the fraction ligated is 0.645.

Turning to “TATCACTGTCTAAGACACTTGGATGGGTTGA [3d1365]”, the fraction ligated is 0.789.

TTCACTGTCGTAAGACACTTTGGAGGGTTGA [3d351] displayed a fraction ligated of 0.327.

TAACTTGTCGTAAGAACTTTGGATGGGTTGA [3d518] showed a fraction ligated of 0.21.

Sequence ATCACTGTCGTAAGACATTTGGATGGGTTGA [3d116] had a fraction ligated of 0.719.

Turning to “TATCATGTCGTAAGACACTTTGGATGGGTTGA [2d109]”, the fraction ligated amounted to 0.792.

For the sequence “TATCACTTGTGTAAACACTTGGATGGGTTGA [3d1747]”, the fraction ligated stood at 0.816.

For “TATCACTTGCGTAAGACACTTGGATGGTTGA [3d1685]”, the fraction ligated was determined as 0.152.

Regarding ATCACTTGTCGTAGACACTTTGATGGGTTGA [3d205], the fraction ligated is 0.715.

Turning to “TATCACTTGCGTAAGCCTTTGGATGGGTTGA [3d1650]”, the fraction ligated was found to be 0.806.

As for TACACTTGCGAAGACACTTTGGATGGGTTGA [3d603], the fraction ligated worked out at 0.157.

On to ATCACTTGTCGTAAGACCTTTGGATGGGTTGA [2d16], for which the fraction ligated is 0.741.

As to TTCACTGTCGTAAGCACTTTGGATGGGTTGA [3d344], the fraction ligated is 0.8.

The sequence “TATCATTGCGTAAGACACTTTGGATGGGTTGA [2d111]” returned a fraction ligated of 0.819.

Regarding “TATCACTTGTCGTAAGCATTTGGTGGGTTGA [3d2123]”, the fraction ligated came out at 0.0465.

For TTCACTTGTCGTAAGAACTTTGGAGGGTTGA [3d466], the fraction ligated turned out to be 0.0901.

“TATCACTTGCGTAAGACCTTTGATGGGTTGA [3d1668]” gave a fraction ligated of 0.789.

In turn, TATACTTGTCGTAAGACCTTTGGTGGGTTGA [3d913] had a fraction ligated of 0.0382.

TTCACTTGCGTAAGACACTTTGGAGGGTTGA [3d383] registered a fraction ligated of 0.0421.

In turn, TTCACTTGTCGTAAGACACTTGGATGGTTGA [3d488] gave a fraction ligated of 0.161.
